From patent US20140087995A1 (published 2014)
Numbered stars: 1 amine (or outer) side, 2 acyl side, 3 side chain; on linkers, the order of the positions; unused ones are H or OH. Bridge positions count the residues as written; N and C are the ends. Side chains are listed from the residue outwards. Ends that are not written are not given here. * marks the point of attachment. C20 diacid = O=C(O)CCCCCCCCCCCCCCCCCCC(=O)*; γGlu = O=C(O)[C@H](CCC(=O)[*:2])N[*:1]

T1: human calcitonin receptor (human, UniProt P30988 25-474)
T1 sequence (looked up): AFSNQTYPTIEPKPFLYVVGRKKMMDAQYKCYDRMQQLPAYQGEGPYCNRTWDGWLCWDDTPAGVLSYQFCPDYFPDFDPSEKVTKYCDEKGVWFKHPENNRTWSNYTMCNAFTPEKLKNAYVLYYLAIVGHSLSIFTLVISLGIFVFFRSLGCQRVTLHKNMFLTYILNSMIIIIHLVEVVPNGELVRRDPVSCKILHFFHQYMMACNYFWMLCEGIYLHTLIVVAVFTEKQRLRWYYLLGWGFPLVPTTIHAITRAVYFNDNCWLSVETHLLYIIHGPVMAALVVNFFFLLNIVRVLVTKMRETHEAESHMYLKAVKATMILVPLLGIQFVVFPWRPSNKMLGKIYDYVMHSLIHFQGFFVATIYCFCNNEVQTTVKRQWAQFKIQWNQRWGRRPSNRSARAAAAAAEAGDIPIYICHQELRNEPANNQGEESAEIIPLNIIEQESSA

B1: N^ε1-[(4S)-4-carboxy-4-(19-carboxynonadecanoylamino)butanoyl]-[Arg14,Arg17,Pro21,Pro27,Pro34]-h-amylin (peptide)
peptide: K([γGlu-C20 diacid])CNTATCATQRLARFLRHSSPNFGAIPSSTNVGPNTY-NH2
modifications: disulfide 2-7; N-terminus assumed
SMILES: CC[C@H](C)[C@H](NC(=O)[C@H](C)NC(=O)CNC(=O)[C@H](Cc1ccccc1)NC(=O)[C@H](CC(N)=O)NC(=O)[C@@H]1CCCN1C(=O)[C@H](CO)NC(=O)[C@H](CO)NC(=O)[C@H](Cc1c[nH]cn1)NC(=O)[C@H](CCCNC(=N)N)NC(=O)[C@H](CC(C)C)NC(=O)[C@H](Cc1ccccc1)NC(=O)[C@H](CCCNC(=N)N)NC(=O)[C@H](C)NC(=O)[C@H](CC(C)C)NC(=O)[C@H](CCCNC(=N)N)NC(=O)[C@H](CCC(N)=O)NC(=O)[C@@H](NC(=O)[C@H](C)NC(=O)[C@@H]1CSSC[C@H](NC(=O)[C@@H](N)CCCCNC(=O)CC[C@H](NC(=O)CCCCCCCCCCCCCCCCCCC(=O)O)C(=O)O)C(=O)N[C@@H](CC(N)=O)C(=O)N[C@@H]([C@@H](C)O)C(=O)N[C@@H](C)C(=O)N[C@@H]([C@@H](C)O)C(=O)N1)[C@@H](C)O)C(=O)N1CCC[C@H]1C(=O)N[C@@H](CO)C(=O)N[C@@H](CO)C(=O)N[C@H](C(=O)N[C@@H](CC(N)=O)C(=O)N[C@H](C(=O)NCC(=O)N1CCC[C@H]1C(=O)N[C@@H](CC(N)=O)C(=O)N[C@H](C(=O)N[C@@H](Cc1ccc(O)cc1)C(N)=O)[C@@H](C)O)C(C)C)[C@@H](C)O
notes: analogue of human amylin; also called compound 65
B2: N^ε1-[(4S)-4-carboxy-4-(19-carboxynonadecanoylamino)butanoyl]-[Arg17,Pro21,Pro27,Glu35]-h-amylin (peptide)
peptide: K([γGlu-C20 diacid])CNTATCATQRLANFLRHSSPNFGAIPSSTNVGSETY-NH2
modifications: disulfide 2-7; N-terminus assumed
SMILES: CC[C@H](C)[C@H](NC(=O)[C@H](C)NC(=O)CNC(=O)[C@H](Cc1ccccc1)NC(=O)[C@H](CC(N)=O)NC(=O)[C@@H]1CCCN1C(=O)[C@H](CO)NC(=O)[C@H](CO)NC(=O)[C@H](Cc1c[nH]cn1)NC(=O)[C@H](CCCNC(=N)N)NC(=O)[C@H](CC(C)C)NC(=O)[C@H](Cc1ccccc1)NC(=O)[C@H](CC(N)=O)NC(=O)[C@H](C)NC(=O)[C@H](CC(C)C)NC(=O)[C@H](CCCNC(=N)N)NC(=O)[C@H](CCC(N)=O)NC(=O)[C@@H](NC(=O)[C@H](C)NC(=O)[C@@H]1CSSC[C@H](NC(=O)[C@@H](N)CCCCNC(=O)CC[C@H](NC(=O)CCCCCCCCCCCCCCCCCCC(=O)O)C(=O)O)C(=O)N[C@@H](CC(N)=O)C(=O)N[C@@H]([C@@H](C)O)C(=O)N[C@@H](C)C(=O)N[C@@H]([C@@H](C)O)C(=O)N1)[C@@H](C)O)C(=O)N1CCC[C@H]1C(=O)N[C@@H](CO)C(=O)N[C@@H](CO)C(=O)N[C@H](C(=O)N[C@@H](CC(N)=O)C(=O)N[C@H](C(=O)NCC(=O)N[C@@H](CO)C(=O)N[C@@H](CCC(=O)O)C(=O)N[C@H](C(=O)N[C@@H](Cc1ccc(O)cc1)C(N)=O)[C@@H](C)O)C(C)C)[C@@H](C)O
notes: analogue of human amylin; also called compound 27

Biological target: T1, human calcitonin receptor
Test: cell-based or functional assay

Row | Binder | hCTR funct. EC50 [nM]
1 | B1 | 9.33
2 | B2 | 3
